Measurements from the supplement of paper PMC7877785.
± gives the uncertainty stated by the source.

Assay: self-splicing fitness, log relative to wild type (ln ratio); higher = more splicing; Tetrahymena group I intron in knt gene, E. coli kanamycin selection, DiMSum; sequences stand for … in CUCUCU…GGAGGGAAAAGUUAUCAGGCAUGCACCUGGUAGCUAGUCUUUAAACCAAUAGAUUGCAUCGGUUUAAAAGGCAAGACCGUCAAAUUGCGGGAAAGGGGUCAACAGCCGUUCAGUACCAAGUCUCAGGGGAAACUUUGAGAUGGCCUUGCAAAGGGUAUGGUAAUAAGCUGACGGACAUGGUCCUAACCACGCAGCCAAGUCCUAAGUCAACAGAUCUUCUGUUGAUAUGGAUGCAGUUCACAGACUAAAUGUCGGUCGGGGAAGAUGUAUUCUUCUCAUAAGAUAUAGUCGGACCUCUCCUUAAUGGGAGCUAGCGGAUGAAGUGAUGCAACACUGGAGCCGCUGGGAACUAAUUUGUAUGCGAAAGUAUAUUGAUUAGUUUUGGAGUACUCGUGGUCG
Outline: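 Pooled colonies went to amplicon sequencing on an Illumina HiSeq 2500 after six replicate transformations. The plates were LB agar with 100 μg/mL carbenicillin, 50 μM IPTG and 0.2% rhamnose, with or without 25 μg/mL kanamycin, incubated overnight at 37°C or 30°C. The E. coli BL21(DE3) library had all eight P1ex-region intron nucleotides randomised, the intron placed in the knt kanamycin-resistance gene on pET-22b(+). DiMSum fitness is the error-weighted combination of replicate fold changes, kanamycin against none, normalised to wild type.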

Sequence	self-splicing fitness (ln) (30 °C)	self-splicing fitness (ln) (37 °C)
UAGCAGCAAUAUUACGGUGU	-3.53 ± 0.15	-1.84 ± 0.15
UAGCAGCAAUAUUACGUACG	-1.2 ± 0.072	-0.47 ± 0.1
UAGCAGCAAUAUUACGUGCC	-1.84 ± 0.17	-1.2 ± 0.21
UAGCAGCAAUAUUACGUUCA	0.0863 ± 0.062	0.0609 ± 0.1
UAGGAGCAAUAUUACGAGAC	-2.26 ± 0.29	–
UAGGAGCAAUAUUACGAGGA	-2.78 ± 0.37	–
UAGGAGCAAUAUUACGAGUG	-3.74 ± 0.33	-1.43 ± 0.17
UAGGAGCAAUAUUACGAGUU	-3.51 ± 0.27	-2.48 ± 0.33
UAGGAGCAAUAUUACGAUAG	-4.07 ± 0.28	-1.95 ± 0.2
UAGGAGCAAUAUUACGAUCG	-1.65 ± 0.16	-0.888 ± 0.21
UAGGAGCAAUAUUACGCCUG	-3.57 ± 0.47	-1.23 ± 0.33
UAGGAGCAAUAUUACGCGAC	–	-1.74 ± 0.38
UAGGAGCAAUAUUACGCGGU	-1.52 ± 0.23	–
UAGGAGCAAUAUUACGGCUU	-4.37 ± 0.28	-3.13 ± 0.4
UAGGAGCAAUAUUACGGGUC	-2.64 ± 0.19	–
UAGGAGCAAUAUUACGGUGA	–	-1.08 ± 0.27
UAGGAGCAAUAUUACGGUGU	-3.4 ± 0.3	-2.9 ± 0.43
UAGGAGCAAUAUUACGUAAC	-4.94 ± 0.41	-2.48 ± 0.22
UAGGAGCAAUAUUACGUAAG	-3.22 ± 0.16	-2.01 ± 0.16
UAGGAGCAAUAUUACGUAUG	-3.04 ± 0.22	-1.71 ± 0.16
UAGGAGCAAUAUUACGUUCG	-0.918 ± 0.2	-0.576 ± 0.19
UAGGAGCAAUAUUACGUUUA	-2.18 ± 0.27	-0.145 ± 0.17
UAGUAGCAAUAUUACGAACA	–	-0.405 ± 0.42
UAGUAGCAAUAUUACGACAA	-0.402 ± 0.15	-0.175 ± 0.14
UAGUAGCAAUAUUACGACAC	–	-1.67 ± 0.26
UAGUAGCAAUAUUACGAGAA	–	-1.76 ± 0.43
UAGUAGCAAUAUUACGAUCG	-0.771 ± 0.095	0.251 ± 0.12

Sequence	self-splicing fitness (ln) (30 °C)	self-splicing fitness (ln) (37 °C)
UAGUAGCAAUAUUACGCGCG	-0.283 ± 0.077	-0.281 ± 0.1
UAGUAGCAAUAUUACGCGCU	-1.46 ± 0.16	-0.161 ± 0.16
UAGUAGCAAUAUUACGCGUG	-1.03 ± 0.12	-0.705 ± 0.15
UAGUAGCAAUAUUACGCUGA	-2.25 ± 0.39	-0.637 ± 0.11
UAGUAGCAAUAUUACGCUUA	-1.15 ± 0.14	-0.806 ± 0.13
UAGUAGCAAUAUUACGGCAU	-2.2 ± 0.15	-0.67 ± 0.16
UAGUAGCAAUAUUACGGGCU	-1.39 ± 0.2	-2.47 ± 0.27
UAGUAGCAAUAUUACGGGGA	-2.44 ± 0.33	-3.25 ± 0.47
UAGUAGCAAUAUUACGGUAC	-3.85 ± 0.48	–
UAGUAGCAAUAUUACGGUCG	-0.566 ± 0.097	-0.103 ± 0.12
UAGUAGCAAUAUUACGUAAU	-2.43 ± 0.13	-2.19 ± 0.13
UAGUAGCAAUAUUACGUCAA	-2.07 ± 0.23	-2.44 ± 0.18
UAGUAGCAAUAUUACGUCCA	-0.915 ± 0.37	–
UAGUAGCAAUAUUACGUCGC	-4.1 ± 0.43	-2.3 ± 0.28
UAGUAGCAAUAUUACGUGAC	-2.58 ± 0.15	-2.47 ± 0.18
UAGUAGCAAUAUUACGUGGC	–	-2.59 ± 0.44
UAUAAGCAAUAUUACGAAGU	-3.7 ± 0.35	-2.71 ± 0.38
UAUAAGCAAUAUUACGACCG	-0.137 ± 0.12	-0.1 ± 0.16
UAUAAGCAAUAUUACGAGAU	-4.28 ± 0.31	-2.54 ± 0.28
UAUAAGCAAUAUUACGCAUC	-3.74 ± 0.2	-2.38 ± 0.17
UAUAAGCAAUAUUACGCCUC	-2.74 ± 0.38	-2.08 ± 0.36
UAUAAGCAAUAUUACGCGUG	-1 ± 0.057	-0.488 ± 0.075
UAUAAGCAAUAUUACGCUAU	-3.91 ± 0.28	-1.92 ± 0.18
UAUAAGCAAUAUUACGCUCC	-1.29 ± 0.24	-1.02 ± 0.28
UAUAAGCAAUAUUACGCUUC	-3.58 ± 0.38	–
UAUAAGCAAUAUUACGGAGC	–	-2.14 ± 0.28
